From paper PMC6719858, “Mitochondrial single-stranded DNA binding protein novel de novo SSBP1 mutation in a child with single large-scale mtDNA deletion (SLSMD) clinically manifesting as Pearson, Kearns-Sayre, and Leigh syndromes” (PLoS ONE, 2019)
Where a chain is given by its changes, count along the chain named. In names and notes the source's numbering stands.

B1: FAM-labeled 50 nt ssDNA (ssDNA)
DNA: AATGCTATCACTATTCGTAGACTTGACCACACCTTGTCAGCTCACGCTCC
B2: wild-type human mitochondrial single-stranded DNA-binding protein (SSBP1) (natural protein, UniProt Q04837 17-148, looked up)
chain: ESETTTSLVLERSLNRVHLLGRVGQDPVLRQVEGKNPVTIFSLATNEMWRSGDSEVYQLGDVSQKTTWHRISVFRPGLRDVAYQYVKKGSRIYLEGKIDYGEYMDKNNVRRQATTIIADNIIFLSDQTKEKE
notes: No tag is mentioned; also called WT SSBP1; HmtSSB; source: E. coli BL21(DE3), purified (Affi-Gel Blue, MonoQ, Superdex 200)
B3: p.E27K human mitochondrial single-stranded DNA-binding protein (SSBP1) (natural protein, UniProt Q04837 17-148, looked up)
chain: B2 chain with E11K
notes: Homotetramer of four mutant chains; The variant was found de novo in a patient; No tag is mentioned; also called p.E27K SSBP1; E27K SSBP1; source: E. coli BL21(DE3), purified (Affi-Gel Blue, MonoQ, Superdex 200)

Assays:
[1] = target: T1, SSBP1 WT (mtSSB) (human, UniProt Q04837 17-148); assay: fluorescence anisotropy; 5 mM MgCl2; apparent Kd, protein as tetramer; 20 nM DNA; quadratic fit; 30 mM HEPES-KOH pH 7.6, 50 mM KCl, 2 mM DTT, 5 mM MgCl2, 20 nM FAM-oligonucleotide, 37 C; details: protein: recombinant; chain copies: 4; label: 3' FAM (fluorescein); single strand
T1 sequence: B2 chain

[2] = target: T2, SSBP1 p.E27K (human, UniProt Q04837 17-148, E27K); assay: fluorescence anisotropy; 5 mM MgCl2; apparent Kd, protein as tetramer; 20 nM DNA; quadratic fit; plateau anisotropy about 1.4-fold higher than WT; 30 mM HEPES-KOH pH 7.6, 50 mM KCl, 2 mM DTT, 5 mM MgCl2, 20 nM FAM-oligonucleotide, 37 C; details: protein: recombinant; chain copies: 4; label: 3' FAM (fluorescein); single strand
T2 sequence: B2 chain with E11K

[3] = target: the molecule itself; assay: SEC; Superdex 200 10/300 GL, AKTA FPLC, Storage Buffer (30 mM HEPES-KOH pH 7.6, 250 mM KCl, 0.25 mM EDTA, 2 mM dithiothreitol, 10% glycerol); purified recombinant protein; single peak read as tetramer

Row | Binder | Kd [1] | Kd [2] | stoichiometry N [3]
1 | B1 | 2.3 nM | 9.3 nM | –
2 | B2 | – | – | 4
3 | B3 | – | – | 4
